{"source": "paper PMC5578167", "key": {"[1]": {"target": "viral CC chemokine inhibitor (vCCI), rabbitpox virus (rabbitpox virus)", "test": "ITC"}, "[2]": {"target": "viral CC chemokine inhibitor (vCCI), rabbitpox, produced and refolded from E. coli (rabbitpox virus)", "test": "ITC"}}, "data": [{"binder": "viral Macrophage Inflammatory Protein-II (vMIP-II), human herpesvirus 8 (natural protein) GDTLGASWHRPDKCCLGYQKRPLPQVLLSSWYPTSQLCSKPGVIFLTKRGRQVCADKSKDWVKKLMQQLPVTAR", "values": [{"measurement": "stoichiometry N", "setting": "[1]", "value": 0.759}]}, {"binder": "viral Macrophage Inflammatory Protein-II (vMIP-II) (natural protein) GDTLGASWHRPDKCCLGYQKRPLPQVLLSSWYPTSQLCSKPGVIFLTKRGRQVCADKSKDWVKKLMQQLPVTAR", "values": [{"measurement": "Kd", "setting": "[2]", "value": "< 0.1", "unit": "nM"}]}]}
